# B1: recombinant WT influenza A NP (NΔ7NP, C-terminal His tag) (natural protein)
# chain: RSYEQMETDGERQNATEIRASVGKMIGGIGRFYIQMCTELKLSDYEGRLIQNSLTIERMVLSAFDERRNKYLEEHPSAGKDPKKTGGPIYRRVDGKWMRELILYDKEEIRRIWRQANNGDDATAGLTHMMIWHSNLNDATYQRTRALVRTGMDPRMCSLMQGSTLPRRSGAAGAAVKGVGTMVMELIRMIKRGINDRNFWRGENGRRTRIAYERMCNILKGKFQTAAQRAMVDQVRESRNPGNAEFEDLIFLARSALILRGSVAHKSCLPACVYGPAVASGYDFEREGYSLVGIDPFRLLQNSQVYSLIRPNENPAHKSQLVWMACHSAAFEDLRVSSFIRGTKVVPRGKLSTRGVQIASNENMETMESSTLELRSRYWAIRTRSGGNTNQQRASSGQISIQPTFSVQRNLPFDRPTIMAAFTGNTEGRTSDMRTEIIRLMESARPEDVSFQGRGVFELSDEKAASPIVPSFDMSNEGSYFFGDNAEEYDN
# Target: the molecule itself
# Experiment: SEC
protein,measurement,value
B1,binding result,binds

# From doi:10.1101/2025.03.06.641832 (bioRxiv, 2025)
